{"source": "paper PMC6259326", "about": "“Study on Suitability of KOD DNA Polymerase for Enzymatic Production of Artificial Nucleic Acids Using Base/Sugar Modified Nucleoside Triphosphates” (Molecules, 2010)", "proteins": {"B1": {"name": "Vent(exo-) DNA polymerase (Thermococcus litoralis; D141A/E143A) (protein)", "chain 1": "MILDTDYITKDGKPIIRIFKKENGEFKIELDPHFQPYIYALLKDDSAIEEIKAIKGERHGKTVRVLDAVKVRKKFLGREVEVWKLIFEHPQDVPAMRGKIREHPAVVDIYEYDIPFAKRYLIDKGLIPMEGDEELKLLAFAIATFYHEGDEFGKGEIIMISYADEEEARVITWKNIDLPYVDVVSNEREMIKRFVQVVKEKDPDVIITYNGDNFDLPYLIKRAEKLGVRLVLGRDKEHPEPKIQRMGDSFAVEIKGRIHFDLFPVVRRTINLPTYTLEAVYEAVLGKTKSKLGAEEIAAIWETEESMKKLAQYSMEDARATYELGKEFFPMEAELAKLIGQSVWDVSRSSTGNLVEWYLLRVAYARNELAPNKPDEEEYKRRLRTTYLGGYVKEPEKGLWENIIYLDFRSLYPSIIVTHNVSPDTLEKEGCKNYDVAPIVGYRFCKDFPGFIPSILGDLIAMRQDIKKKMKSTIDPIEKKMLDYRQRAIKLLAN", "chain 2": "SYYGYMGYPKARWYSKECAESVTAWGRHYIEMTIREIEEKFGFKVLYAD", "chain 3": "TDGFYATIPGEKPELIKKKAKEFLNYINSKLPGLLELEYEGFYLRGFFVTKKRYAVIDEEGRITTRGLEVVRRDWSEIAKETQAKVLEAILKEGSVEKAVEVVRDVVEKIAKYRVPLEKLVIHEQITRDLKDYKAIGPHVAIAKRLAARGIKVKPGTIISYIVLKGSGKISDRVILLTEYDPRKHKYDPDYYIENQVLPAVLRILEAFGYRKEDLRYQSSKQTGLDAWLKR", "notes": "commercial exonuclease-deficient enzyme (New England Biolabs), mature intein-free form"}}, "key": {"purified protein": {"substrate": "Nc1ccn([C@H]2C[C@H](O)[C@@H](COP(=O)(O)OP(=O)(O)OP(=O)(O)O)O2)c(=O)n1", "experiment": "purified protein", "conditions": "apparent Km, 40 °C, primer P1 / template T1, misinsertion, 0.0125 U/μL enzyme"}, "[1]": {"substrate": "Cc1cn([C@H]2C[C@H](O)[C@@H](COP(=O)(O)OP(=O)(O)OP(=O)(O)O)O2)c(=O)[nH]c1=O", "experiment": "single nucleotide primer extension, 6-FAM primer, denaturing PAGE", "type": "biochemical, Thermococcus litoralis", "conditions": "apparent Km, 40 °C, primer P1 / template T1, correct insertion, 0.0125 U/μL enzyme", "from_the_text": "(§1) single nucleotide primer extension, 6-FAM primer, denaturing PAGE on Vent(exo-) DNA polymerase"}, "[2]": {"substrate": "NCCCCCCNC(=O)Cc1cn([C@@H]2O[C@H](COP(=O)(O)OP(=O)(O)OP(=O)(O)O)[C@@H](O)[C@@H]2O)c(=O)[nH]c1=O", "experiment": "single nucleotide primer extension, 6-FAM primer, denaturing PAGE", "type": "biochemical, Thermococcus litoralis", "conditions": "apparent Km, 40 °C, primer P1 / template T1, correct insertion, 0.0125 U/μL enzyme", "from_the_text": "as §1"}, "[3]": {"substrate": "NCCCCCCNC(=O)Cc1cn([C@H]2C[C@H](O)[C@@H](COP(=O)(O)OP(=O)(O)OP(=O)(O)O)O2)c(=O)[nH]c1=O", "experiment": "single nucleotide primer extension, 6-FAM primer, denaturing PAGE", "type": "biochemical, Thermococcus litoralis", "conditions": "apparent Km, 40 °C, primer P1 / template T1, correct insertion, 0.0125 U/μL enzyme", "from_the_text": "as §1"}}}
{"protein": "B1", "values": [{"measurement": "Km", "setting": "purified protein", "result": 1700, "unit": "µM"}, {"measurement": "kcat", "setting": "purified protein", "result": 0.00233, "unit": "s⁻¹"}, {"measurement": "Km", "setting": "[1]", "result": 3, "unit": "µM"}, {"measurement": "kcat", "setting": "[1]", "result": 0.00567, "unit": "s⁻¹"}, {"measurement": "Km", "setting": "[2]", "result": 4.4, "unit": "µM"}, {"measurement": "kcat", "setting": "[2]", "result": 0.000817, "unit": "s⁻¹"}, {"measurement": "Km", "setting": "[3]", "result": 2.7, "unit": "µM"}, {"measurement": "kcat", "setting": "[3]", "result": 0.00483, "unit": "s⁻¹"}]}
